Laboratory results taken from patent US20020115066A1, “Viral therapeutics” (priority 1998, published 2002).
Peptide text beside a SMILES is read from it. * marks the point of attachment. Cbz = O=C(OCc1ccccc1)*

How the values were obtained:
proteasome = test: Western blot of core protein after treatment with proteasome inhibitor MG132; type: cell-based, hamster; conditions: cells electroporated with pSFV.1-124, 145-152; MG132 2.5 μM from 4 hours after electroporation, harvested at 16 hours
Method: A. Western Blot analysis of extracts prepared from cells which were harvested 16 hours after electroporation following treatment with proteasomal inhibitor MG132. Aliquots of extracts containing the same number of cell equivalents were analyzed with antibody JM122. The samples were from cells electroporated with RNA from the following constructs: lanes 1 and 2, PSFV.1-195; lanes 3 and 4, pSFV.1-124, 145-152; lanes 5 and 6, pSFV.Δ125-144; lanes 7 and 8, pSFV.1-153; lanes 9 and 10, no RNA. Samples in lanes with odd numbers were prepared from cells not treated with MG132. Samples in lanes with even numbers were prepared from cells which had been incubated in the presence of MG132 (final concentration 2.5 μM) from 4 hours after electroporation.
For Western blot analysis, proteins were separated on polyacrylamide gels and transferred to nitrocellulose membrane using standard techniques. The nitrocellulose membrane was blocked in 3% gelatin, 20 mM Tris (pH 7.5), 500 mM NaCl for at least 6 hours at 37° C. prior to incubation with the primary antibody. Incubations with the primary antibody (diluted to 1/500for adipophilin antibody and 1/1000for JM122) were performed in 1% gelatin, 20 mM Tris (pH 7.5), 500 mM NaCl, 0.05% Tween 20 at either room temperature or 37° C. for approximately 3-4 hours. […] Bound antibody was detected by enhanced chemiluminescence.

lipid droplets = test: Intracellular localization of tagged GBV-B and HCV core proteins (Example 10); type: cell-based, hamster; conditions: BHK cells, epitope tag detected with antibody 9220 or JM122, oil red O
From the text: To express portions of the GBV-B polyprotein, relevant regions were amplified by PCR from a construct pGBB (30). pGBB contains the consensus sequence for an infectious molecular clone of GBV-B (30). Primers for PCR amplification were derived from the viral sequences in pGBB and were used in the following pairs to produce DNA fragments that encoded N-terminal regions of the GBV-B polyprotein: residues 1-141, GBV-B primers 1 and 2; residues 1-194, GBV-B primers 1 and 3; residues 1-398, GBV-B primers 1 and 4. Amplified fragments were introduced initially into plasmid pGEM1 and thereafter into pSFV1 by standard cloning techniques. To permit detection of GBV-B core, an epitope tag (32) was introduced into the coding region immediately following amino acid residue 85 (FIG. 7). […] An oligonucleotide encoding the epitope tag (GBV-B5 in Table 1) was inserted between this XbaI site and a TfiI site (position 708 in the native GBV-B nucleotide sequence). The final SFV constructs that contained tagged versions of GBV-B core were termed pSFV/GB1-141, pSFV/GB1-194 and pSFV/GB1-398. […]
Cells on 13 mm coverslips were fixed for 30 min in 4% paraformaldehyde, 0.1% Triton X-100 (prepared in phosphate-buffered saline) at 4° C. […] Samples were analyzed using a Zeiss LSM confocal microscope.

Molecule	increase in the amount of protein detected by Western blot analysis (proteasome)	intracellular localization relative to lipid droplets (lipid droplets)
CC(C)C[C@@H](C=O)NC(=O)[C@H](CC(C)C)NC(=O)[C@H](CC(C)C)NC(=O)OCc1ccccc1 [MG132] (Cbz-Leu-Leu-Leu-aldehyde)	4 fold	–
pSFV/GB1-141: SFV construct with epitope-tagged GBV-B core, residues 1-141 of the GBV-B polyprotein (protein, left off: small tags and cut ends) MPVISTQTSPVPAPRTRKNKQTQASYPVSIKTSVERGQRAKRKVQRDARPRNYKIAGIHDGLQTLAQAALPAHGWGRQDPRHKSRNLGILLDYPLGWIGDVTTHTPLVGPLVAGAVVRPVCQIVRLLEDGVNWATGWFGVH	–	localization of the protein around lipid droplets
pSFV/GB1-398: SFV construct with epitope-tagged GBV-B core, residues 1-398 of the GBV-B polyprotein (protein, left off: small tags and cut ends) MPVISTQTSPVPAPRTRKNKQTQASYPVSIKTSVERGQRAKRKVQRDARPRNYKIAGIHDGLQTLAQAALPAHGWGRQDPRHKSRNLGILLDYPLGWIGDVTTHTPLVGPLVAGAVVRPVCQIVRLLEDGVNWATGWFGVHLFVVCLLSLACPCSGARVTDPDTNTTILTNCCQRNQVIYCSPSTCLHEPGCVICADECWVPANPYISHPSNWTGTDSFLADHIDFVMGALVTCDALDIGELCGACVLVGDWLVRHWLIHIDLNETGTCYLEVPTGIDPGFLGFIGWMAGKVEAVIFLTKLASQVPYAIATMFSSVHYLAVGALIYYASRGKWYQLLLALMLYIEATSGNPIRVPTGCSIAEFCSPLMIPCPCHSYLSENVSEVICYSPKWTRPVTLE	–	staining around lipid droplets
